# Data reported in the supplement of paper PMC7125110.
# ± gives the standard error. Fewer inactive variants are shown than the library holds.
# B1: glmS ribozyme (parent)
# chain: AUAAAAGCGCCAGAACUACAGAAAUGUAGUUGACGAGGAGGAGGUUUAUCGAAUUUUCGGCGGAUGCCUCCAAA
# Tests used:
# Settings in all cases: with glucosamine-6-phosphate
# [1] = variants of: B1; test: self-cleavage kobs at 40 uM GlcN6P; higher = faster cleavage; RNA array
# How it was run: (§1)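 Over ~14 h at 37 °C, tiles were imaged as glucosamine-6-phosphate (40 μM to 10 mM) in HEPES/KCl/Mg(OAc)2 buffer flowed across sequenced MiSeq chips. The chips carried barcoded ribozyme variants transcribed in situ by E. coli RNA polymerase and tracked with a hybridised Cy3 probe. After normalisation to baseline and to non-cleaving reference variants, one- or two-exponential decay fits of per-tile medians gave kobs. kcat and KM followed from weighted Michaelis–Menten fits across concentrations.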
# [2] = variants of: B1; test: self-cleavage kobs at 640 uM GlcN6P; higher = faster cleavage; RNA array
# How it was run: as §1
# [3] = variants of: B1; test: self-cleavage kobs at 10000 uM GlcN6P; higher = faster cleavage; RNA array
# How it was run: as §1
# [4] = variants of: B1; test: self-cleavage kobs at 160 uM GlcN6P; higher = faster cleavage; RNA array
# How it was run: as §1
# [5] = variants of: B1; test: self-cleavage kobs at 2500 uM GlcN6P; higher = faster cleavage; RNA array
# How it was run: as §1
Variant,self-cleavage kobs at 40 uM GlcN6P [1] [s⁻¹],self-cleavage kobs at 640 uM GlcN6P [2] [s⁻¹],self-cleavage kobs at 10000 uM GlcN6P [3] [s⁻¹],self-cleavage kobs at 160 uM GlcN6P [4] [s⁻¹],self-cleavage kobs at 2500 uM GlcN6P [5] [s⁻¹]
U46C G59A,< 1e-05,< 1e-05,4.71e-05 ± 1.4e-05,–,–
U46C G59U,< 1e-05,–,–,< 1e-05,–
U49G C61A G62U,< 1e-05,< 1e-05,< 1e-05,–,< 1e-05
U46G G60C,< 1e-05,< 1e-05,< 1e-05,< 1e-05,< 1e-05
U46G G60A,< 1e-05,< 1e-05,–,< 1e-05,–
C50G C58A C67U,3.98e-05 ± 1.7e-05,–,5.82e-05 ± 1.9e-05,–,–
G44U A64U,< 1e-05,< 1e-05,< 1e-05,< 1e-05,< 1e-05
A48C G59A,< 1e-05,< 1e-05,< 1e-05,< 1e-05,< 1e-05
A48C G59U,< 1e-05,< 1e-05,< 1e-05,< 1e-05,< 1e-05
U49G G51A G63A,< 1e-05,–,< 1e-05,–,–
U45G G60U C67U C70A,< 1e-05,< 1e-05,< 1e-05,–,–
C50G C67A C71A,5.33e-05 ± 1.4e-05,0.0002 ± 3.8e-05,6e-05 ± 1.6e-05,0.000226 ± 3.6e-05,8.26e-05 ± 1.6e-05
U46A U49G,< 1e-05,–,2.85e-05 ± 1.2e-05,–,–
U46C C50A C58U G62C,< 1e-05,–,–,–,–
A52U G60U C67U,< 1e-05,–,< 1e-05,–,–
G51C C58G,< 1e-05,–,–,–,–
C50G G60C C67U,6.17e-05 ± 1.7e-05,0.000438 ± 0.00012,4.29e-05 ± 1.2e-05,–,0.000124 ± 3.4e-05
G51C C70A,< 1e-05,< 1e-05,–,–,–
A52G G66C,< 1e-05,–,–,–,4.69e-05 ± 1.5e-05
A48C G62A,< 1e-05,< 1e-05,< 1e-05,< 1e-05,< 1e-05
U45A G66A,0.000969 ± 0.00013,0.00848 ± 0.0021,0.0359 ± 0.011,0.00224 ± 0.00044,0.00884 ± 0.002
A48U G66C,< 1e-05,–,–,< 1e-05,–

Variant,self-cleavage kobs at 40 uM GlcN6P [1] [s⁻¹],self-cleavage kobs at 640 uM GlcN6P [2] [s⁻¹],self-cleavage kobs at 10000 uM GlcN6P [3] [s⁻¹],self-cleavage kobs at 160 uM GlcN6P [4] [s⁻¹],self-cleavage kobs at 2500 uM GlcN6P [5] [s⁻¹]
G51C C67A,< 1e-05,< 1e-05,–,< 1e-05,< 1e-05
C50A G62A A64C,< 1e-05,–,< 1e-05,–,–
A48G A52G C58U,< 1e-05,–,–,–,–
G51C C58U C68A,< 1e-05,–,–,–,–
U45G G60C,< 1e-05,< 1e-05,–,–,–
C50G U54G G60A C70G,< 1e-05,< 1e-05,–,–,–
U45C U54G,3.96e-05 ± 1.3e-05,0.00067 ± 0.00015,0.00305 ± 0.00064,0.000199 ± 3.9e-05,0.000454 ± 0.00018
U47A C50U,< 1e-05,–,5.52e-05 ± 1.2e-05,–,–
C50G G63A,5.7e-05 ± 1.5e-05,4e-05 ± 1.7e-05,–,0.000484 ± 0.00023,3.78e-05 ± 1.6e-05
A52U A64G C70A,< 1e-05,–,–,–,–
G51U G59A,< 1e-05,–,< 1e-05,–,–
U49G C58G,< 1e-05,–,–,–,–
A48C G51U C67U,< 1e-05,–,< 1e-05,–,–
G51C G62A,< 1e-05,< 1e-05,< 1e-05,–,< 1e-05
U45C G59U,< 1e-05,< 1e-05,< 1e-05,< 1e-05,–
G44C G59C C61A,< 1e-05,< 1e-05,< 1e-05,< 1e-05,< 1e-05
C50G C58G,8.56e-05 ± 1.3e-05,0.000235 ± 5.2e-05,–,0.000155 ± 2.6e-05,6.82e-05 ± 1.8e-05
C50G C58U,0.000198 ± 9.7e-05,–,–,9.14e-05 ± 2.2e-05,0.000443 ± 0.00019
C50G C58A,5.49e-05 ± 1.6e-05,0.000175 ± 4.4e-05,3.98e-05 ± 1.7e-05,0.000151 ± 4.4e-05,0.000194 ± 3.7e-05
G51U C58A G60U,< 1e-05,–,< 1e-05,–,–
U46C A53C U55A U56G G62C,< 1e-05,–,–,–,–
A48G U65A C68A,0.000357 ± 0.00011,–,0.000113 ± 3.1e-05,–,–

Variant,self-cleavage kobs at 40 uM GlcN6P [1] [s⁻¹],self-cleavage kobs at 640 uM GlcN6P [2] [s⁻¹],self-cleavage kobs at 10000 uM GlcN6P [3] [s⁻¹],self-cleavage kobs at 160 uM GlcN6P [4] [s⁻¹],self-cleavage kobs at 2500 uM GlcN6P [5] [s⁻¹]
A52U G63U,< 1e-05,–,< 1e-05,< 1e-05,–
U45C C61G,< 1e-05,< 1e-05,< 1e-05,< 1e-05,< 1e-05
U45C C61U,< 1e-05,< 1e-05,< 1e-05,< 1e-05,–
A48U U55G G62C,< 1e-05,< 1e-05,< 1e-05,–,–
U49G G51A,< 1e-05,< 1e-05,< 1e-05,< 1e-05,< 1e-05
A52G U57G,5.61e-05 ± 1.6e-05,0.000523 ± 0.00014,0.00397 ± 0.00056,0.000188 ± 6.1e-05,0.00103 ± 0.00019
U47C U57G,< 1e-05,–,–,–,–
U47G U56A C58U A64G U69A C70A,5.21e-05 ± 2.2e-05,–,3.66e-05 ± 1.4e-05,–,–
U46A A48C C70G C71U,< 1e-05,–,< 1e-05,–,–
G44U A53G C70A,< 1e-05,–,< 1e-05,–,< 1e-05
C50A G63U,< 1e-05,< 1e-05,< 1e-05,< 1e-05,–
G44C A64G C70U,< 1e-05,< 1e-05,< 1e-05,–,< 1e-05
G51C G66U,< 1e-05,< 1e-05,< 1e-05,–,< 1e-05
G51C G66C,< 1e-05,< 1e-05,–,< 1e-05,–
U46C G60C,< 1e-05,< 1e-05,< 1e-05,< 1e-05,< 1e-05
U46C C61U,< 1e-05,< 1e-05,–,< 1e-05,< 1e-05
A52C A64U,< 1e-05,< 1e-05,< 1e-05,< 1e-05,< 1e-05
C50G C61U,3.66e-05 ± 1.1e-05,9.4e-05 ± 1.3e-05,–,6.61e-05 ± 1.4e-05,0.000423 ± 0.0002
G44U C68A,< 1e-05,< 1e-05,< 1e-05,< 1e-05,–
U45C C58U,< 1e-05,< 1e-05,–,< 1e-05,< 1e-05
U45C C58G,< 1e-05,< 1e-05,–,< 1e-05,–
A52G U57A G66U,< 1e-05,–,3.15e-05 ± 1.6e-05,–,–

Variant,self-cleavage kobs at 40 uM GlcN6P [1] [s⁻¹],self-cleavage kobs at 640 uM GlcN6P [2] [s⁻¹],self-cleavage kobs at 10000 uM GlcN6P [3] [s⁻¹],self-cleavage kobs at 160 uM GlcN6P [4] [s⁻¹],self-cleavage kobs at 2500 uM GlcN6P [5] [s⁻¹]
C50G U69A,0.000132 ± 2.4e-05,0.000587 ± 0.0001,7.99e-05 ± 1.5e-05,0.000172 ± 2.9e-05,0.000186 ± 2.8e-05
G44C G60A U69G,< 1e-05,–,–,–,–
U46C A52C,< 1e-05,–,–,< 1e-05,–
U45C G63A,< 1e-05,–,< 1e-05,< 1e-05,< 1e-05
U45G U54C G63C A64U U65G,< 1e-05,–,–,–,–
U46A G51U,< 1e-05,< 1e-05,< 1e-05,< 1e-05,< 1e-05
A48G C50A,< 1e-05,< 1e-05,–,< 1e-05,< 1e-05
A53C G59A,< 1e-05,< 1e-05,–,–,–
A52C G62C C70A,< 1e-05,–,–,–,–
G44U G66U,< 1e-05,< 1e-05,< 1e-05,< 1e-05,< 1e-05
C50G A53U G66A C67A,0.000122 ± 4.6e-05,–,0.000135 ± 5.1e-05,–,–
U46C U47C C58G,< 1e-05,< 1e-05,–,–,–
U49C G63A A64C,< 1e-05,–,–,–,–
U45A C68A,< 1e-05,< 1e-05,–,< 1e-05,3.91e-05 ± 1.9e-05
A48G G51C,< 1e-05,–,< 1e-05,< 1e-05,< 1e-05
A52U U55A U57C C67A,< 1e-05,–,< 1e-05,–,–
A52G A64U,< 1e-05,–,–,< 1e-05,–
G44C C50A U55A C70U,< 1e-05,–,–,–,–
U49A A52C,< 1e-05,< 1e-05,< 1e-05,< 1e-05,–
U47G C67A,0.000123 ± 1.8e-05,0.000788 ± 0.00013,0.00198 ± 0.00048,0.000171 ± 3.2e-05,0.000691 ± 0.00014
